Here are results for four substances from PMC6219724.

For test [1], the target named is biotinylated Taxol-stabilized microtubules grown from bovine tubulin (bovine) (UniProt Q6B856). The test is described as follows: single-molecule TIRF microscopy; biotinylated Taxol-stabilized microtubules tethered to the coverslip; 1.5 nM 549SNAP-tagged KKT4 in BRB80, 1 mg/ml κ-casein, 1 mM DTT, 10 µM Taxol; residence time, lattice diffusion and brightness of single particles.

For test [2], the target named is dynamic microtubules grown from coverslip-anchored GMPCPP-stabilized seeds with purified bovine brain tubulin (bovine) (UniProt Q6B856). The test is described as follows: laser trap bead assay; protein held on streptavidin beads by biotinylated His5 antibody (60, 600, 6,500 nM); dynamic microtubules from coverslip-anchored seeds, 6 µM bovine brain tubulin; preload 0.8 ± 0.3 pN (3.3 ± 0.5 pN for Ndc80 complex), friction coefficient on the lattice, then force ramp of 0.25 pN/s until rupture of the tip attachment.

In test [1], “full-length charge-reversal mutant KKT4 (R123E, K132E, R154E), 549SNAP-tagged (natural protein)” had a fold change of the average residence time against wild-type KKT4 of 2 fold shorter and a fold change of the lattice diffusion against wild-type KKT4 of 2 fold faster.

“charge-reversal mutant KKT4 115-343 (R123E, K132E, R154E) (domain or fragment)” showed an average rupture force of tip attachments in test [2] of 1.6 pN.

In test [2], 6HIS-KKT4 115-343 (domain or fragment) gave an average rupture force of tip attachments of 2.1 pN.

“full-length KKT4 fused with an N-terminal SNAP-6HIS-3FLAG tag, labeled with 549SNAP dye (natural protein)”: in test [1], the average residence time is 5.4 s and the diffusion coefficient on the microtubule lattice came to 0.0071 µm^2/s.
